Numbering of substitutions follows the chain as printed.
How the values were obtained:
ZNF524 ZF3-4 = biological target: T1, ZNF524 ZF3-4 (human, UniProt Q96C55 166-223); test: ITC; ITC: 20 mM Tris-HCl pH 7.5, 150 mM NaCl, 20 C; pull-down: 50 mM Tris-HCl pH 7.5, 150 mM NaCl, 0.5% IGEPAL, 5 mM MgCl2, 1 mM DTT, salmon sperm DNA, 4 C; conditions: protein: recombinant; tags: none (GST removed by TEV); blunt
T1 sequence: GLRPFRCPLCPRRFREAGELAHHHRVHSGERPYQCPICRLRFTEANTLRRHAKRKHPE

ZNF524 ZF2-3 = biological target: T2, ZNF524 ZF2-3 (human, UniProt Q96C55 138-196); test: as above; conditions: protein: recombinant; tags: none (GST removed by TEV); blunt
T2 sequence: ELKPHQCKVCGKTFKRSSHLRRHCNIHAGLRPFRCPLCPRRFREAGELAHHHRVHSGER

ZNF524 ZF1-4 R159A = biological target: T3, ZNF524 ZF1-4 R159A (human, UniProt Q96C55 110-223, R159A); test: as above; conditions: protein: recombinant; tags: none (GST removed by TEV); blunt
T3 sequence: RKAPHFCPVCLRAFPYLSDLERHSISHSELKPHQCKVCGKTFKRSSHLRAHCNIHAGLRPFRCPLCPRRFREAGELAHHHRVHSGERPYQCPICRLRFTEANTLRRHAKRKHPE

[1] = biological target: T4, ZNF524 ZF2-4 (ZF1 removed) (human, UniProt Q96C55 138-223); test: as above; conditions: protein: recombinant; tags: none (GST removed by TEV); blunt
T4 sequence: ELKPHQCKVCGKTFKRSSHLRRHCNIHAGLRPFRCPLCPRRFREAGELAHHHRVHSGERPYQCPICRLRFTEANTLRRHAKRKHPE

ZNF524 ZF1-4 N211G = biological target: T5, ZNF524 ZF1-4 N211G (human, UniProt Q96C55 110-223, N211G); test: as above; conditions: protein: recombinant; tags: none (GST removed by TEV); blunt
T5 sequence: T3 sequence with A50R, N102G

ZNF524 ZF2M = biological target: T6, ZNF524 ZF2M (human, UniProt Q96C55 110-223, R153A;S155A;H156A;R159A); test: as above; conditions: protein: recombinant; tags: none (GST removed by TEV); blunt
T6 sequence: T3 sequence with R44A, S46A, H47A

ZNF524 ZF1-4 R131A = biological target: T7, ZNF524 ZF1-4 R131A (human, UniProt Q96C55 110-223, R131A); test: as above; conditions: protein: recombinant; tags: none (GST removed by TEV); blunt
T7 sequence: T3 sequence with R22A, A50R

[2] = biological target: T8, ZNF524 ZF1-4 minimal domain (human, UniProt Q96C55 110-223); test: as above; conditions: protein: recombinant; tags: none (GST removed by TEV); blunt
T8 sequence: T3 sequence with A50R

ZNF524 ZF1-4 R180A = biological target: T9, ZNF524 ZF1-4 R180A (human, UniProt Q96C55 110-223, R180A); test: as above; conditions: protein: recombinant; tags: none (GST removed by TEV); blunt
T9 sequence: T3 sequence with A50R, R71A

ZNF524 ZF1-4 H156A = biological target: T10, ZNF524 ZF1-4 H156A (human, UniProt Q96C55 110-223, H156A); test: as above; conditions: protein: recombinant; tags: none (GST removed by TEV); blunt
T10 sequence: T3 sequence with H47A, A50R

ZNF524 ZF1-4 S155A = biological target: T11, ZNF524 ZF1-4 S155A (human, UniProt Q96C55 110-223, S155A); test: as above; conditions: protein: recombinant; tags: none (GST removed by TEV); blunt
T11 sequence: T3 sequence with S46A, A50R

ZNF524 ZF1-4 E184A = biological target: T12, ZNF524 ZF1-4 E184A (human, UniProt Q96C55 110-223, E184A); test: as above; conditions: protein: recombinant; tags: none (GST removed by TEV); blunt
T12 sequence: T3 sequence with A50R, E75A

ZNF524 ZF1-4 R215A = biological target: T13, ZNF524 ZF1-4 R215A (human, UniProt Q96C55 110-223, R215A); test: as above; conditions: protein: recombinant; tags: none (GST removed by TEV); blunt
T13 sequence: T3 sequence with A50R, R106A

[3] = biological target: T14, ZNF524 ZF1-3 (ZF4 removed) (human, UniProt Q96C55 110-196); test: as above; conditions: protein: recombinant; tags: none (GST removed by TEV); blunt
T14 sequence: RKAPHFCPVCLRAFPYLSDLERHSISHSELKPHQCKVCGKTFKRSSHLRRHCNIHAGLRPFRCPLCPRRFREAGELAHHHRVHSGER

ZNF524 ZF1-4 E181A = biological target: T15, ZNF524 ZF1-4 E181A (human, UniProt Q96C55 110-223, E181A); test: as above; conditions: protein: recombinant; tags: none (GST removed by TEV); blunt
T15 sequence: T3 sequence with A50R, E72A

ZNF524 ZF1-4 R153A = biological target: T16, ZNF524 ZF1-4 R153A (human, UniProt Q96C55 110-223, R153A); test: as above; conditions: protein: recombinant; tags: none (GST removed by TEV); blunt
T16 sequence: T3 sequence with R44A, A50R

[4] = biological target: T8, ZNF524 ZF1-4 minimal domain; test: ITC; annealed in 100 mM NaCl; ITC: 20 mM Tris-HCl pH 7.5, 150 mM NaCl, 20 C; pull-down: 50 mM Tris-HCl pH 7.5, 150 mM NaCl, 0.5% IGEPAL, 5 mM MgCl2, 1 mM DTT, salmon sperm DNA, 4 C; conditions: protein: recombinant, tags: none (GST removed by TEV), single strand
ZNF524 ZF1-4 (crystal) = biological target: T17, ZNF524 ZF1-4 (crystal) (human, UniProt Q96C55 107-237); test: crystal structure 2.40 A; Zn2+; ITC: 20 mM Tris-HCl pH 7.5, 150 mM NaCl, 20 C; pull-down: 50 mM Tris-HCl pH 7.5, 150 mM NaCl, 0.5% IGEPAL, 5 mM MgCl2, 1 mM DTT, salmon sperm DNA, 4 C; conditions: protein: recombinant; tags: none (GST removed by TEV); 5' overhang 1 nt at each end (A and T)
T17 sequence: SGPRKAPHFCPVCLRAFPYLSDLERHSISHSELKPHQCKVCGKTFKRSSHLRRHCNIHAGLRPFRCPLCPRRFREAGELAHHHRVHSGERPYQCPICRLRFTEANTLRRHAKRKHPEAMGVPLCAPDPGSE

B1: TTAGGG 12-bp duplex (dsDNA)
DNA 1: GGTTAGGGTTAG
DNA 2: CTAACCCTAACC
binding result (ZNF524 ZF3-4): no binding
Kd (ZNF524 ZF2-3): 1210 ± 790 nM
Kd (ZNF524 ZF1-4 R159A): 100 ± 90 nM
Kd [1]: 620 ± 100 nM
Kd (ZNF524 ZF1-4 N211G): 170 ± 30 nM
binding result (ZNF524 ZF2M): no binding
Kd (ZNF524 ZF1-4 R131A): 340 ± 50 nM
Kd [2]: 90 ± 20 nM
Kd (ZNF524 ZF1-4 R180A): 410 ± 80 nM
Kd (ZNF524 ZF1-4 H156A): 60 ± 40 nM
Kd (ZNF524 ZF1-4 S155A): 250 ± 30 nM
Kd (ZNF524 ZF1-4 E184A): 230 ± 130 nM
Kd (ZNF524 ZF1-4 R215A): 220 ± 60 nM
Kd [3]: 590 ± 150 nM
Kd (ZNF524 ZF1-4 E181A): 420 ± 90 nM
Kd (ZNF524 ZF1-4 R153A): 150 ± 40 nM

B2: TCAGGG duplex (dsDNA)
DNA 1: GGTCAGGGTCAG
DNA 2: CTGACCCTGACC
Kd [2]: 280 ± 40 nM

B3: TGAGGG duplex (dsDNA)
DNA 1: GGTGAGGGTGAG
DNA 2: CTCACCCTCACC
Kd [2]: 270 ± 110 nM

B4: TTGGGG duplex (dsDNA)
DNA 1: GGTTGGGGTTGG
DNA 2: CCAACCCCAACC
Kd [2]: 330 ± 130 nM

B5: GTGAGT duplex (dsDNA)
DNA 1: GTGTGAGTGTGA
DNA 2: TCACACTCACAC
binding result [2]: no binding

TTAGGGTTAGGGTTAGGGTTAGGG (ssDNA) [(TTAGGG)4-ssDNA]
binding result [4]: no binding

B6: telomeric crystal duplex (dsDNA)
DNA 1: AGGGTTAGGGTTAGG
DNA 2: TCCTAACCCTAACCC
binding result (ZNF524 ZF1-4 (crystal)): binds
